According to US20230285581A1 (published 2023):
Blank lines part the entries; values can stand above or below the binder they belong to.

Tests used:
[1] = target: T1, full length monkey MSR1 on HEK293.mfMSR1 cells (Macaca fascicularis, UniProt A0A2K5UWE2 1-451); assay: ECL cell binding, HEK293.mfMSR1 cells
T1 construct: whole, on cells
T1 sequence: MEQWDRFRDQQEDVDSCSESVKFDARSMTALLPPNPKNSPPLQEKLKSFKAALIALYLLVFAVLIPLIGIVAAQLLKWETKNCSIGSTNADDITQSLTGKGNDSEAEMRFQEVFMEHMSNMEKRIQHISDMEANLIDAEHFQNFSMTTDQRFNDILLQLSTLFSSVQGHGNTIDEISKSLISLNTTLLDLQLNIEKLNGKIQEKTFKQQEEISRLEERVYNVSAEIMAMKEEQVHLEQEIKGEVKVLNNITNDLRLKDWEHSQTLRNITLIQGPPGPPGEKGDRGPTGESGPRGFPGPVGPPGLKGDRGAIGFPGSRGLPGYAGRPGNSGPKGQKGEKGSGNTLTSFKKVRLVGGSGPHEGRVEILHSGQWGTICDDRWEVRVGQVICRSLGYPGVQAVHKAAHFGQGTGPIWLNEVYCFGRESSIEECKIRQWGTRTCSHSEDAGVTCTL

[2] = target: T2, mouse MSR1 extracellular domain expressed with a N-terminal nonahistidine tag (mouse, UniProt P30204 79-458); assay: BLI (Octet), 25C, mAb captured; no dissociation seen, kd fixed at 5.00E-05
T2 construct: extracellular domain; Bought reagent; also called His9-mMSR1
T2 sequence: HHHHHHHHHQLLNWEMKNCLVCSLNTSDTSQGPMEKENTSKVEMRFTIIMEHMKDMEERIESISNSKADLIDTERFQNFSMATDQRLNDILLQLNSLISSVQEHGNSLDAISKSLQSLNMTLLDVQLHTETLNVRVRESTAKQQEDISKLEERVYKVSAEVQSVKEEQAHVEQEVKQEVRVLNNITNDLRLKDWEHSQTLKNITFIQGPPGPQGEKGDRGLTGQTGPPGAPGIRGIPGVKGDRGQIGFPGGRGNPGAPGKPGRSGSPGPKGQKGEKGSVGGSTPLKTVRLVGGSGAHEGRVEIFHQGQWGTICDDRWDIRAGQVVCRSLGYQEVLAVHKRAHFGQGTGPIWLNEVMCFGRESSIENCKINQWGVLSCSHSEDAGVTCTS
Procedure: Binding affinities and kinetic constants of human anti-MSR1 antibodies for different MSR1 reagents were determined using a real time, label-free bio-layer interferometry assay on an OCTET® HTX biosensor platform (Pall FortéBio Corp., Menlo Park, Calif.). The experiment was performed at 25° C. in 10 mM HEPES, 150 mM NaCl, 3 mM EDTA, 0.05% v/v Surfactant Tween-20, and 1 mg/mL BSA, pH7.4 (HBS-EBT) buffer with the plate shaking at the speed of 1000 rpm. […] The anti-MSR1 monoclonal antibodies were captured by dipping either anti-human Fc (AHC) or anti-mouse Fc (AMC) Octet biosensors in wells containing 5 μg/mL or 10 μg/mL of anti-MSR1 monoclonal antibody for 45-90 seconds. […] The binding of different MSR1 reagents to the captured anti-MSR1 monoclonal antibody was measured for 4 minutes and the dissociation of monoclonal antibody bound MSR1 reagent was monitored for 8-10 minutes in HBS-EBT buffer.
The association rate (kₐ) and dissociation rate (kd) were determined by fitting the real-time binding sensorgrams to a 1:1 binding model with mass transport limitation using Scrubber 2.0c curve-fitting software. Binding dissociation equilibrium constant (KD) and dissociative half-life (t½) were calculated from the kinetic rates as:

B1: H2aM21229N (antibody, mouse IgG2a, V domains shown)
VH: EVQLVESGGGLVKPGGSLRLSCAASGFTFSRYSMNWVRQAPGKGLEWVSSISSSSSYIYYGDTVKGRFTISRDNAKKSLYLQMNSLRAEDTAVYYCVRDRGQLVLYFDYWGQGTLVTVSS
VL: DIQMTQSPASLSTSIRDRVTITCRASLSISSFLNWFQQRPGKAPKLLIYVASNLQSGVPSRFSDSGSGTDFTLTISSLQPEDFATYYCQQNYSTPPITFGQGTRLEIK
notes: mouse IgG2a Fc (H2aM)
ratio of 11 nM antibody binding signal (RLU) to isotype control [1]: 27 ratio

B2: H1xH29282P2 (antibody, V domains shown)
VH: EVQLVESGGGLVQPGGSLRLSCAASGFTFSTYAMSWVRQAPGKGLEWVSTISGRSDITYFADSVKGRFTVSRDNSKTTLYLQMNSLRAEDTAVYYCATDDDLPLDYWGQGTLVTVSS
VL: not shown
notes: the prefix H1xH is not explained for the anti-MSR1 antibodies
ratio of 11 nM antibody binding signal (RLU) to isotype control [1]: 1 ratio

B4: H1H21234N-N297Q (antibody, human IgG1, V domains shown)
VH: QVQLQESGPGLVKPSETLSLTCTVTGGSISRNYWSWIRQPPGKGLEWIGYIYYSGSIDYNPSLKSRVTISVDTSKNQFSLKLSSMTAADTAVYYCARDRWNWKYGMDVWGQGTTVIVSS
VL: EIVLTQSPGTLSLSPGERATLSCRASQTVRNNYLAWYHQKPGQAPRLLIYGASSRATGIPDRFSGSGSGTDFTLTISRLEPEDFTVYYCHQYGNSPWTFGQGTKMEIKR
notes: human IgG1 Fc with N297Q
t½ [2]: ≥ 3.85 h

More lines, now with the values ahead:

ratio of 11 nM antibody binding signal (RLU) to isotype control [1]: 13 ratio
B3: H1H27766P2-N297Q (antibody, human IgG1, V domains shown)
VH: EVQLVESGGGLVQPGGSLRLSCAASGFTFSSFAMSWVRQAPGKELEWVSSISGRGGSTYYADSVRGRFTISRDNSKITLYLQMNSLRAEDTAVYYCAKDIVFRYTSSAYWYFDLWGRGTLVTVSS
VL: not shown
notes: human IgG1 Fc with N297Q; also called H1H27766P-N297Q

t½ [2]: ≥ 3.85 h
B5: H1H21234N (antibody, human IgG1, V domains shown)
VH: B4 VH
VL: B4 VL
notes: original human IgG1 Fc
